The values that follow are results of earlier work, collected in PMC2766628.

As usually defined, the Kd is the equilibrium constant for the complex coming apart.

This data set has as its target PEP 3BP1 element (UniProt Q9Y2R2).
Sequence of UniProt Q9Y2R2 (Q9Y2R2 605-629): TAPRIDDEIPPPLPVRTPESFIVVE

For the substance Csk SH3 (from UniProt P41240), the Kd is 800 nM.
